The values below come from article PMC9839844, “PPDPF Promotes the Development of Mutant KRAS‐Driven Pancreatic Ductal Adenocarcinoma by Regulating the GEF Activity of SOS1” (Advanced Science, 2022).

The experiment has as its target T1, SOS1^Cat (catalytic module of SOS1: REM and CDC25 domains), recombinant (UniProt Q07889 566-1046).
T1 construct: SOS1, Cat domain (REM and CDC25 domains together); cloned into the ProEX HTb vector; also called SOS^Cat; Cat domain; source: E. coli BL21 (Rosta), purified (His beads)
T1 sequence: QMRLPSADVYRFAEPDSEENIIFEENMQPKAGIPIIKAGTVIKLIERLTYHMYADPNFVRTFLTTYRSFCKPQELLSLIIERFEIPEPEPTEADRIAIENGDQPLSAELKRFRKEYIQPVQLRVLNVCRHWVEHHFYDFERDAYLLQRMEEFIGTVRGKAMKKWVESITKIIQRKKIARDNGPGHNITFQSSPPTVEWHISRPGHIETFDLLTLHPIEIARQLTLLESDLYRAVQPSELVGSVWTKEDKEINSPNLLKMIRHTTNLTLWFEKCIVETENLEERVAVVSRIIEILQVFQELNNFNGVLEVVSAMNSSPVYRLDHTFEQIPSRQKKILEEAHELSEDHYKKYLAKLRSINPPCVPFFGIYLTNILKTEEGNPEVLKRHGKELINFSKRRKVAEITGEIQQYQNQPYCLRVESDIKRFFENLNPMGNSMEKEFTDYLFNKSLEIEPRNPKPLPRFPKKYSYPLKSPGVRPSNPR
The experiment is described as follows: pull-down; GST pulldown in vitro with recombinant proteins. As to conditions: both partners purified.

B1: PPDPF, recombinant (natural protein, UniProt Q9H3Y8 1-114, looked up)
chain: MAAIPSSGSLVATHDYYRRRLGSTSSNSSCSSTECPGEAIPHPPGLPKADPGHWWASFFFGKSTLPFMATVLESAEHSEPPQASSSMTACGLARDAPRKQPGGQSSTASAGPPS
notes: Pancreatic progenitor cell differentiation and proliferation factor (PPDPF); subcloned into pGEX-4T-1; The methods say that the beads were incubated with thrombin; also called PPDPF recombinant protein; source: E. coli BL21, purified (GST beads)
With B1, the binding result was “binds”.
